Data set [1] addresses recombinant human glutaminyl cyclase (QC, EC 2.3.2.5) (human) (UniProt Q16769). Description: competitive inhibition of the human QC catalyzed reaction, 30° C, 0.05 M Tris-HCl pH 8.0, 5 mM EDTA.
In another data set the test system is T1, H-Gln-Pro-Tyr-Phe-NH2.
T1 sequence: QPYF

For the next data set, the system named is T2, H-Gln-Glu-Ala-Ala-NH2.
T2 sequence: QEAA

The test system of data set [2] is T3, [Gln^5]-substance P(5-11).
T3 sequence: QQFFGLM

Another data set concerns T4, H-Gln-His-Tyr-Phe-NH2.
T4 sequence: QHYF

For another data set, the system named is T5, H-Gln-Trp-Ala-NH2.
T5 sequence: QWA

Another data set has as its system T6, H-Gln-Arg-Tyr-Phe-NH2.
T6 sequence: QRYF

The test system of a further data set is T7, H-Gln-Gln-Tyr-Phe-NH2.
T7 sequence: QQYF

A further data set deals with T8, H-Gln-Glu-Tyr-NH2.
T8 sequence: QEY

A further data set deals with T9, H-Gln-Gln-OH.
T9 sequence: QQ

Data set [3] concerns T10, H-Gln-Ala-Ala-Ser-Ala-Ala-NH2.
T10 sequence: QAASAA

Another data set deals with T11, H-Gln-Asn-Gly-Ile-NH2.
T11 sequence: QNGI

In another data set the target is [Gln^3]-glucagon(3-29) (UniProt P01275).
[Gln^3]-glucagon(3-29), sequence (P01275 23-49): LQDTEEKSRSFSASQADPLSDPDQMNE
The next data set concerns T12, H-Gln-Glu-Tyr-Phe-NH2.
T12 sequence: QEYF

Another data set relates to T13, H-Gln-Phe-Ala-NH2.
T13 sequence: QFA

Another data set has as its system T14, [Gln^1]-FPP.
T14 sequence: QEP

The test system of a further data set is T15, [Gln^1]-Gastrin.
T15 sequence: QGPWLEEEEEAYGWMDF

A further data set deals with T16, H-Gln-Ala-Ala-NH2.
T16 sequence: QAA

A further data set deals with T17, H-Gln-Arg-Gly-Ile-NH2.
T17 sequence: QRGI

A further data set relates to T18, [Gln^1]-GnRH.
T18 sequence: QHWSYGLRPG

The test system of the next data set is T19, H-Gln-Ala-NH2.
T19 sequence: QA

The next data set has as its system T20, H-Gln-Glu-OH.
T20 sequence: QE

Data set [4] concerns T21, H-Gln-cyclo(Nε-Lys-Arg-Pro-Ala-Gly-Phe).
T21 sequence: QKRPAGF

In data set [5] the test system is T22, H-Gln-Ala-Ala-Ala-Ala-NH2.
T22 sequence: QAAAA

The test system of a further data set is T23, H-Gln-Gly-Pro-OH.
T23 sequence: QGP

Data set [6] relates to T24, H-βhomoGln-Phe-Lys-Arg-Leu-Ala-NH2.
T24 sequence: QFKRLA

A further data set relates to T25, H-Gln-Ser-Tyr-Phe-NH2.
T25 sequence: QSYF

The test system of data set [7] is T26, H-Gln(NMe)-Phe-Lys-Ala-Glu-NH2.
T26 sequence: QFKAE

A further data set concerns T27, H-Gln-Ala-OH.
T27 sequence: QA

A further data set has as its system T28, H-Gln-Glu-Ala-Phe-NH2.
T28 sequence: QEAF

The next data set concerns T29, H-Gln-Glu-Tyr-Ala-NH2.
T29 sequence: QEYA

Another data set concerns T30, H-Gln-Gly-OH.
T30 sequence: QG

The next data set concerns T31, H-Gln-Glu-Asp-Leu-NH2.
T31 sequence: QEDL

Another data set deals with T32, H-Gln-Lys-Arg-Leu-NH2.
T32 sequence: QKRL

A further data set concerns T33, H-Gln-Tyr-Ala-OH.
T33 sequence: QYA

This is an account of results in US7462599.

The Ki is the equilibrium dissociation constant of an inhibitor or competing ligand from its target.

recombinant human glutaminyl cyclase (QC, EC 2.3.2.5) (human), sequence (Q16769 29-361 limits assumed): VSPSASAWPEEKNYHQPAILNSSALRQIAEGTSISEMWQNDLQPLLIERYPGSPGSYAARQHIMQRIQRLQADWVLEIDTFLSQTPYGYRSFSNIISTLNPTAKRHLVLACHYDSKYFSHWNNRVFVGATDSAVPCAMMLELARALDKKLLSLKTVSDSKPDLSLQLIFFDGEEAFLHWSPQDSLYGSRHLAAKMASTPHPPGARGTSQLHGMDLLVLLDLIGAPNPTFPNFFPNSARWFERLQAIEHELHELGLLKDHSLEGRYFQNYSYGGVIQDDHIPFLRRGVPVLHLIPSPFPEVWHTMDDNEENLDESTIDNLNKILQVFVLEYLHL

As for H-His-Trp-OH (peptide), the Ki in [1] stood at 600 µM.

“glutaminyl cyclase from Carica papaya latex”: the KM (substrate conversion by QC) in the data set with H-Gln-Pro-Tyr-Phe-NH2 worked out at 149 µM; in the data set with H-Gln-Glu-Ala-Ala-NH2, 102 µM; in the data set on H-Gln-His-Tyr-Phe-NH2 it was 92 µM; in the data set on H-Gln-Trp-Ala-NH2, 78 µM; with H-Gln-Arg-Tyr-Phe-NH2 it was 124 µM; in the data set with H-Gln-Gln-Tyr-Phe-NH2, 45 µM. Also, the KM (substrate conversion by QC) was found to be 103 µM with H-Gln-Glu-Tyr-NH2; 44 µM in the data set on H-Gln-Gln-OH; 216 µM in data set [3]; 153 µM in the data set with H-Gln-Asn-Gly-Ile-NH2; 100 µM in the data set on H-Gln-Glu-Tyr-Phe-NH2; 111 µM in the data set with H-Gln-Phe-Ala-NH2. Also, the KM (substrate conversion by QC) was 232 µM in data set [Gln^1]-FPP; 34 µM in [Gln^1]-Gastrin; 164 µM in the data set with H-Gln-Ala-Ala-NH2; 123 µM in the data set on H-Gln-Arg-Gly-Ile-NH2; 169 µM in data set [Gln^1]-GnRH; 212 µM with H-Gln-Ala-NH2. Besides, the KM (substrate conversion by QC) was 40 µM in data set [Gln^1]-Neurotensin; 106 µM in the data set on H-Gln-Glu-OH; “KM-values of 240±14 µM and 133±5 µM for human and papaya QC, respectively” in [4]; 197 µM in [5]; 333 µM in the data set on H-Gln-Gly-Pro-OH; “KM=3.1±0.3 mM” in data set [6]. The KM (substrate conversion by QC) was 135 µM with H-Gln-Ser-Tyr-Phe-NH2; 158 µM in the data set on H-Gln-Ala-OH; 81 µM in the data set with H-Gln-Glu-Ala-Phe-NH2; 113 µM in the data set on H-Gln-Glu-Tyr-Ala-NH2; 641 µM in the data set on H-Gln-Gly-OH; 107 µM in the data set with H-Gln-Glu-Asp-Leu-NH2. For the same substance, the values for the KM (substrate conversion by QC) in the data set with H-Gln-Lys-Arg-Leu-NH2 and with H-Gln-Tyr-Ala-OH were 118 µM and 63 µM, respectively. Also, the “substrate conversion, determined qualitatively by MALDI-TOF” value in [2] and in data set [Gln^3]-glucagon(3-29) was “*” each time. The KM (0.05 M Tricine-NaOH, pH 8.0) in the data set on H-Gln-Trp-Ala-NH2 came out at 0.079 mM; with H-Gln-Arg-Gly-Ile-NH2, 0.106 mM; in the data set with H-Gln-Glu-OH it was 0.098 mM; in the data set with H-Gln-Ala-OH, 0.137 mM; with H-Gln-Glu-Asp-Leu-NH2, 0.109 mM; with H-Gln-Lys-Arg-Leu-NH2, 0.102 mM. Moreover, the KM (0.05 M Tricine-NaOH, pH 8.0, 0.5 M KCl) stood at 0.072 mM in the data set on H-Gln-Trp-Ala-NH2; 0.065 mM in the data set on H-Gln-Arg-Gly-Ile-NH2; 0.094 mM with H-Gln-Glu-OH; 0.143 mM in the data set on H-Gln-Ala-OH; 0.094 mM in the data set on H-Gln-Glu-Asp-Leu-NH2; 0.053 mM with H-Gln-Lys-Arg-Leu-NH2. The “conversion to the pyroglutamyl peptide (MALDI-TOF)” value in data set [7] is listed as “The methylated glutaminyl residue was only converted into a pyroglutamyl residue by papaya QC”.
